Consider 33 molecules from patent US20070265189A1 (published 2007).

The target in experiment [1] is T1, Soluble IGF-1R (sIGF-1R), R&D Systems Cat. # 391-GR/CF (UniProt P08069 31-935, limits assumed).
T1 construct: extracellular domain
In words: phage ELISA.

Experiment [2] deals with T2, soluble human insulin receptor-immunoglobulin heavy chain chimera (sIR-Fc; Bass et al., 1996) (human, UniProt P06213 28-956, limits assumed).
T2 construct: extracellular domain; also called soluble IR (Bass construct); not shown: immunoglobulin heavy chain constant domains
Briefly: phage ELISA. A general note: ELISA stands for enzyme-linked immunosorbent assay.

B1: 20C-3-E4-IGFR (peptide)
peptide: FFYRCLSRLLGGQLGSRLGLSCIGD
With B1, in experiment [1], the IGF-1R/IR comparison worked out at 6 and the “Ratio over Background” value came to 7.7. In experiment [2], the IR/IGF-1R comparison was found to be 0.2 and the “Ratio over Background” value turned out to be 1.3.

B2: B6Hα-2-C7-IR (peptide)
peptide: RGIVAMVEATEVGSDHDPFYHKLSELVQGS
Regarding B2, in experiment [1], the IGF-1R/IR comparison is 6.7 and the “Ratio over Background” value amounted to 6.7. Further, in experiment [2], the IR/IGF-1R comparison worked out at 0.1 and the “Ratio over Background” value was 1.

B3: H2CA-4-F11-IGFR (peptide)
peptide: SAAQLFFQESFYDWFLRQVAESSQPN
For the molecule B3, in experiment [1], the IGF-1R/IR comparison was found to be 6.7 and the “Ratio over Background” value came to 6.8. In addition, in experiment [2], the IR/IGF-1R comparison was 0.1 and the “Ratio over Background” value is 1.

B4: 20E2B-3-D4-IGFR (peptide)
peptide: NSRDGGFYLQLERLLGFPVTG
Regarding B4, in experiment [1], the IGF-1R/IR comparison turned out to be 9.6 and the “Ratio over Background” value was 7.9. Further, in experiment [2], the IR/IGF-1R comparison was 0.1 and the “Ratio over Background” value is 0.8.

B5: 20E2B-4-F10-IGFR (peptide)
peptide: AQPCGGFYGLLEQLVGRSVCD
Regarding B5, in experiment [1], the IGF-1R/IR comparison is 7.8 and the “Ratio over Background” value was determined as 17.3. In experiment [2], the IR/IGF-1R comparison worked out at 0.1 and the “Ratio over Background” value is 2.2.

B6: 20E2B-3-C8-IGFR (peptide)
peptide: QPAPDGFYSALMKLIGRGGVS
Consider B6, for which, in experiment [1], the IGF-1R/IR comparison is 8.9 and the “Ratio over Background” value was 15.6. In addition, in experiment [2], the IR/IGF-1R comparison worked out at 0.1 and the “Ratio over Background” value came out at 1.8.

B7: NNRPγ-4-A7-IR (peptide)
peptide: RFDPFYSYFVNLLGASA
In the case of B7, in experiment [1], the IGF-1R/IR comparison was 4.9 and the “Ratio over Background” value is 6.3. Also, in experiment [2], the IR/IGF-1R comparison stood at 0.2 and the “Ratio over Background” value was found to be 1.3.

B8: 20E2B-3-D11-IGFR (peptide)
peptide: LGVTDGFYAALGYLIHGVGQF
On to B8, for which, in experiment [1], the IGF-1R/IR comparison came out at 7.6 and the “Ratio over Background” value turned out to be 12.2. Also, in experiment [2], the IR/IGF-1R comparison amounted to 0.1 and the “Ratio over Background” value amounted to 1.6.

B9: 20E2B-3-D12-IGFR (peptide)
peptide: QGNVLDFYGWIGRLLAKQGSD
On to B9, for which, in experiment [1], the IGF-1R/IR comparison was 7.3 and the “Ratio over Background” value was determined as 6.2. Besides, in experiment [2], the IR/IGF-1R comparison was 0.1 and the “Ratio over Background” value amounted to 0.9.

B10: 20E2B-2-B3-IGFR (peptide)
peptide: ICTGQGFYQVLCGLLRGTSAR
As for B10, in experiment [1], the IGF-1R/IR comparison amounted to 7.4 and the “Ratio over Background” value was 5.3. Moreover, in experiment [2], the IR/IGF-1R comparison stood at 0.1 and the “Ratio over Background” value stood at 0.7.

B11: H2CA-4-F6-IGFR (peptide)
peptide: AVRATRFDEAFYDWFVRQISDGQGNK
As to B11, in experiment [1], the IGF-1R/IR comparison was found to be 6.4 and the “Ratio over Background” value worked out at 7.3. Moreover, in experiment [2], the IR/IGF-1R comparison came out at 0.2 and the “Ratio over Background” value was 1.1.

B12: 20E2B-4-H8-IGFR (peptide)
peptide: PAGPCGFYCGLGLLLHGDQSP
For B12, in experiment [1], the IGF-1R/IR comparison turned out to be 5.9 and the “Ratio over Background” value amounted to 5.3. For the same molecule, in experiment [2], the IR/IGF-1R comparison turned out to be 0.2 and the “Ratio over Background” value stood at 0.9.

B13: 20E2B-1-A11-IGFR (peptide)
peptide: RFSTDGFYQYLLALVGGGPVG
Turning to B13, in experiment [1], the IGF-1R/IR comparison is 9.7 and the “Ratio over Background” value was determined as 9.5. Further, in experiment [2], the IR/IGF-1R comparison is 0.1 and the “Ratio over Background” value stood at 1.

B14: 20E2B-2-B8-IGFR (peptide)
peptide: IWATGDFYRLLSQLVMGRVGT
On to B14, for which, in experiment [1], the IGF-1R/IR comparison was found to be 7.2 and the “Ratio over Background” value amounted to 5.7. Moreover, in experiment [2], the IR/IGF-1R comparison was determined as 0.1 and the “Ratio over Background” value stood at 0.8.

B15: NNRPγ-4-A9-IR (peptide)
peptide: EGSGFYGYFFSLLGLQG
As to B15, in experiment [1], the IGF-1R/IR comparison was 7.1 and the “Ratio over Background” value was determined as 10. Besides, in experiment [2], the IR/IGF-1R comparison worked out at 0.1 and the “Ratio over Background” value was 1.4.

B16: 20E2B-3-D6-IGFR (peptide)
peptide: DSVGDNFYQLLESLVGGHGVG
Turning to B16, in experiment [1], the IGF-1R/IR comparison was 6.9 and the “Ratio over Background” value worked out at 17.8. Also, in experiment [2], the IR/IGF-1R comparison was 0.1 and the “Ratio over Background” value is 2.6.

B17: 20E2B-4-H9-IGFR (peptide)
peptide: RCQGTGFYTCIQELIGFGDPD
Take B17: in experiment [1], the IGF-1R/IR comparison was 5.6 and the “Ratio over Background” value was 5.2. Also, in experiment [2], the IR/IGF-1R comparison is 0.2 and the “Ratio over Background” value stood at 0.9.

B18: 20E2B-4-F8-IGFR (peptide)
peptide: PVGVQGFYEGLSRLVLGRGGW
B18: in experiment [1], the IGF-1R/IR comparison stood at 9.7 and the “Ratio over Background” value turned out to be 7.3. Moreover, in experiment [2], the IR/IGF-1R comparison stood at 0.1 and the “Ratio over Background” value was determined as 0.8.

B19: B6Hα-3-E8-IR (peptide)
peptide: RGKTAAVIVGRPADPFYHKLSELLQGG
Consider B19, for which, in experiment [1], the IGF-1R/IR comparison came out at 4.8 and the “Ratio over Background” value amounted to 5.3. In experiment [2], the IR/IGF-1R comparison was 0.2 and the “Ratio over Background” value was 1.1.

B20: H2CA-4-H8-IGFR (peptide)
peptide: SACQFDCHENFYDWFARQVSGGAAYG
B20: in experiment [1], the IGF-1R/IR comparison stood at 9.4 and the “Ratio over Background” value turned out to be 9.2. Also, in experiment [2], the IR/IGF-1R comparison is 0.1 and the “Ratio over Background” value stood at 1.

B21: 20E2B-2-B2-IGFR (peptide)
peptide: PGTDLGFYQALRCVVIQGACD
In the case of B21, in experiment [1], the IGF-1R/IR comparison was 8.1 and the “Ratio over Background” value stood at 4.9. In experiment [2], the IR/IGF-1R comparison turned out to be 0.1 and the “Ratio over Background” value turned out to be 0.6.

B22: 20E2A-3-C7-IGFR (peptide)
peptide: VGTVAGFYDAIAQLVARASRV
Take B22: in experiment [1], the IGF-1R/IR comparison is 5.1 and the “Ratio over Background” value was 5.4. In experiment [2], the IR/IGF-1R comparison was determined as 0.2 and the “Ratio over Background” value came to 1.1.

B23: 20E2B-3-E12-IGFR (peptide)
peptide: VATSQGFYSGLSELLQGGGNV
For B23, in experiment [1], the IGF-1R/IR comparison was determined as 7.3 and the “Ratio over Background” value was found to be 6. In addition, in experiment [2], the IR/IGF-1R comparison is 0.1 and the “Ratio over Background” value is 0.8.

B24: 20E2B-3-C4-IGFR (peptide)
peptide: ASSASGFYELLQRLAGLGLEV
For the molecule B24, in experiment [1], the IGF-1R/IR comparison came out at 6.2 and the “Ratio over Background” value was found to be 20.4. For the same molecule, in experiment [2], the IR/IGF-1R comparison stood at 0.2 and the “Ratio over Background” value was 3.3.

B25: NNRPγ-4-A1-IR (peptide)
peptide: IIGGFYSYFNSVLRLGT
In the case of B25, in experiment [1], the IGF-1R/IR comparison was 6 and the “Ratio over Background” value was 10.9. Moreover, in experiment [2], the IR/IGF-1R comparison is 0.2 and the “Ratio over Background” value came out at 1.8.

B26: 20E2B-2-B7-IGFR (peptide)
peptide: LSSDGQFYRALNLLLQGSAGR
Take B26: in experiment [1], the IGF-1R/IR comparison came out at 6.7 and the “Ratio over Background” value came to 6.1. Besides, in experiment [2], the IR/IGF-1R comparison came to 0.1 and the “Ratio over Background” value turned out to be 0.9.

B27: B6Hα-2-C10-IR (peptide)
peptide: SGAKVIVVTGDSGDPFYHKLSELLQGS
Take B27: in experiment [1], the IGF-1R/IR comparison turned out to be 5.3 and the “Ratio over Background” value stood at 5.8. Further, in experiment [2], the IR/IGF-1R comparison is 0.2 and the “Ratio over Background” value was determined as 1.1.

B28: 20C-3-A4-IGFR (peptide)
peptide: QFYGCLLDLSLGVPSFGWRRRCITA
For B28, in experiment [1], the IGF-1R/IR comparison is 7.6 and the “Ratio over Background” value was determined as 8.8. In experiment [2], the IR/IGF-1R comparison came to 0.1 and the “Ratio over Background” value amounted to 1.2.

B29: 20E2B-4-G11-IGFR (peptide)
peptide: RQGTGSFYLMLEQLLVGARGP
Consider B29, for which, in experiment [1], the IGF-1R/IR comparison amounted to 7 and the “Ratio over Background” value was 4.5. For the same molecule, in experiment [2], the IR/IGF-1R comparison was determined as 0.1 and the “Ratio over Background” value turned out to be 0.6.

B30: R20α-4-20C11-IR (peptide)
peptide: DRAFYNGLRDLVGAVYGAWD
As to B30, in experiment [1], the IGF-1R/IR comparison came to 10.3 and the “Ratio over Background” value came to 30.8. For the same molecule, in experiment [2], the IR/IGF-1R comparison turned out to be 0.1 and the “Ratio over Background” value worked out at 3.

B31: 20E2B-1-A8-IGFR (peptide)
peptide: TLRSPTFYDWLEMVLTHGQGG
As for B31, in experiment [1], the IGF-1R/IR comparison stood at 5 and the “Ratio over Background” value was 4.4. Moreover, in experiment [2], the IR/IGF-1R comparison is 0.2 and the “Ratio over Background” value is 0.9.

B32: 20E2B-4-F9-IGFR (peptide)
peptide: QPDHSYFYSLLQELVGSEERL
Turning to B32, in experiment [1], the IGF-1R/IR comparison stood at 7.7 and the “Ratio over Background” value was determined as 14.7. In addition, in experiment [2], the IR/IGF-1R comparison was 0.1 and the “Ratio over Background” value came out at 1.9.

B33: 20E2B-3-E8-IGFR (peptide)
peptide: LRIANLFYQRLWDLAFGGGG
With B33, in experiment [1], the IGF-1R/IR comparison was determined as 11.1 and the “Ratio over Background” value is 16.7. For the same molecule, in experiment [2], the IR/IGF-1R comparison amounted to 0.1 and the “Ratio over Background” value is 1.5.
